Reference: paper PMC4621513

Biological target: APOBEC3G (A3G) (UniProt Q9HC16)
Assay: AFM imaging
Details: protein:DNA 2:1, Force spectroscopy probing buffer: 50 mM HEPES, 100 mM NaCl, 5 mM MgCl2, 1 mM DTT (pH and temperature not given), imaging buffer not in the material

APOBEC3G (A3G), sequence (Q9HC16 whole entry): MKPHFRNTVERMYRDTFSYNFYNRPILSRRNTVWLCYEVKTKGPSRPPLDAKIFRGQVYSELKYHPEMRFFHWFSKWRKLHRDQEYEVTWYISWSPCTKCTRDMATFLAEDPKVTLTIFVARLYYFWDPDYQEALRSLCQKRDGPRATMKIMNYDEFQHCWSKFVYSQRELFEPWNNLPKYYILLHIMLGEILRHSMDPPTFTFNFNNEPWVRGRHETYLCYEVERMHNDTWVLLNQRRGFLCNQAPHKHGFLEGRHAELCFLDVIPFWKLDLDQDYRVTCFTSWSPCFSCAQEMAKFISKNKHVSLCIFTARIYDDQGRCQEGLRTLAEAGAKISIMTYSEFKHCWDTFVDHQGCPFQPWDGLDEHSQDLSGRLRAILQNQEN

| Substance | binding signal (% complex yield) (p = 0.12 vs specific (not significant)) | binding signal (% complex yield) |
| --- | --- | --- |
| 418 bp duplex with 69 nt nonspecific overhang | 72.8 | – |
| 418 bp duplex with 69 nt deaminase specific overhang | – | 79.7 |
